The values that follow come from paper PMC5789857.

For this experiment, the target named is TBEV envelope protein (E-protein), strain Hypr, in the purified virion (tick-borne encephalitis virus, strain Hypr) (UniProt Q01299). In words: cryo-EM structure.

“TBEV envelope protein (E-protein), strain Hypr, in the purified virion (from UniProt Q01299) (natural protein)”: the stoichiometry N was 2.

As a reminder, the stoichiometry N is a count of units in the complex or per binding partner.
